Values belong to the binder of their own block, whether it stands above or below them.
Columns and labels:
[1] = molecular target: IFN-α (subtype not stated; antigen of the ELISA, BIAcore and Kinexa assays of Example 2) (human); experiment: ELISA, IFN-α coated at 0.1 µg/ml, F(ab) at 10 µg/ml; SD 0.06, N 3
[2] = molecular target: IFN-α (subtype not stated; antigen of the ELISA, BIAcore and Kinexa assays of Example 2) (human); experiment: ELISA, IFN-α coated at 0.1 µg/ml, F(ab) at 10 µg/ml; SD 0.00, N 3
[3] = molecular target: IFN-α (subtype not stated; antigen of the ELISA, BIAcore and Kinexa assays of Example 2) (human); experiment: Kinexa
[4] = molecular target: IFN-α (subtype not stated; antigen of the ELISA, BIAcore and Kinexa assays of Example 2) (human); experiment: ELISA, IFN-α coated at 0.1 µg/ml, F(ab) at 10 µg/ml; SD 0.05, N 3
[5] = molecular target: IFN-α (subtype not stated; antigen of the ELISA, BIAcore and Kinexa assays of Example 2) (human); experiment: ELISA, IFN-α coated at 0.1 µg/ml, F(ab) at 10 µg/ml; SD 0.32, N 3
[6] = molecular target: IFN-α (subtype not stated; antigen of the ELISA, BIAcore and Kinexa assays of Example 2) (human); experiment: Kinexa; remark: listed apart in the source
[7] = molecular target: leukocyte interferon (Sigma Product No. 1-2396): heterogeneous collection of IFN-α subtypes produced by activated leukocytes; experiment: cell-based or functional assay

B1: humanized 9F3 F(ab) version F-11 (Fab, V domains shown)
VH: EVQLVESGGGLVQPGGSLRLSCATSGYTFTEYIIHWVRQAPGKGLEWVASINPDYDITNYNQRFKGRFTISLDKSSNTAYLQMNSLRAEDTAVYYCASWISDFFDYWGQGTLVTVSS
VL: DIQMTQSPSSLSASVGDRVTITCRASQSVSTSSYSYMHWYQQKPGKAPKLLIYYASNLESGVPSRFSGSGSGTDFTLTISSLQPEDFATYYCQHSWGIPRTFGQGTKVEIK
OD450 nm at 10 µg/ml (mean) [1]: 0.642 OD450 nm

B2: humanized 9F3 F(ab) version F-1 (Fab, V domains shown)
VH: EVQLVESGGGLVQPGGSLRLSCAASGYTFTEYIIHWVRQAPGKGLEWVASINPDYDITNYNQRFKGRFTISRDNSKNTLYLQMNSLRAEDTAVYYCARWISDFFDYWGQGTLVTVSS
VL: DIQMTQSPSSLSASVGDRVTITCRASQSVSTSSYSYMHWYQQKPGKAPKLLIYYASNLESGVPSRFSGSGSGTDFTLTISSLQPEDFATYYCQHSWGIPRTFGQGTKVEIK
OD450 nm at 10 µg/ml (mean) [2]: 0.06 OD450 nm

B4: humanized 9F3 F(ab) version F-12 (Fab, V domains shown)
VH: EVQLVESGGGLVQPGGSLRLSCATSGYTFTEYIIHWVRQAPGKGLEWVASINPDYDITNYNQRFKGRFTISLDKSKRTAYLQMNSLRAEDTAVYYCASWISDFFDYWGQGTLVTVSS
VL: DIQMTQSPSSLSASVGDRVTITCRASQSVSTSSYSYMHWYQQKPGKAPKLLIYYASNLESGVPSRFSGSGSGTDFTLTISSLQPEDFATYYCQHSWGIPRTFGQGTKVEIK
OD450 nm at 10 µg/ml (mean) [4]: 0.912 OD450 nm

The next lines start with the values.

fold reduction of affinity against the parental murine 9F3 antibody [3]: 2 fold
B3: humanized recombinant anti-IFN-α monoclonal antibody V13IgG2 (antibody, V domains shown)
VH: EVQLVESGGGLVQPGGSLRLSCATSGYTFTEYIIHWVRQAPGKGLEWVASINPDYDITNYNQRFKGRFTISLDKSKRTAYLQMNSLRAEDTAVYYCASWISDFFDYWGQGTLVTVSS
VL: DIQMTQSPSSLSASVGDRVTITCRASQSVSTSSYSYMHWYQQKPGKAPKVLISYASNLESGVPSRFSGSGSGTDFTLTISSLQPEDFATYYCQHSWGIPRTFGQGTKVEIKR

OD450 nm at 10 µg/ml (mean) [1]: 0.472 OD450 nm
B5: humanized 9F3 F(ab) version F-14 (Fab, V domains shown)
VH: EVQLVESGGGLVQPGGSLRLSCATSGYTFTEYIIHWVRQAPGKGLEWVASINPDYDITNYNQRFKGRFTISRDKSKRTAYLQMNSLRAEDTAVYYCASWISDFFDYWGQGTLVTVSS
VL: DIQMTQSPSSLSASVGDRVTITCRASQSVSTSSYSYMHWYQQKPGKAPKVLISYASNLESGVPSRFSGSGSGTDFTLTISSLQPEDFATYYCQHSWGIPRTFGQGTKVEIK

OD450 nm at 10 µg/ml (mean) [5]: 0.868 OD450 nm
B6: humanized 9F3 F(ab) version F-15 (Fab, V domains shown)
VH: EVQLVESGGGLVQPGGSLRLSCATSGYTFTEYIIHWVRQAPGKGLEWVASINPDYDITNYNQRFKGRFTISLDNSKRTAYLQMNSLRAEDTAVYYCASWISDFFDYWGQGTLVTVSS
VL: DIQMTQSPSSLSASVGDRVTITCRASQSVSTSSYSYMHWYQQKPGKAPKVLISYASNLESGVPSRFSGSGSGTDFTLTISSLQPEDFATYYCQHSWGIPRTFGQGTKVEIK

Kd [6]: 1.5 pM
neutralization of anti-viral activity (EMC virus, A549 cells; 10 µg/ml mAb) [7]: > 95%
B7: murine anti-human IFN-α monoclonal antibody 9F3 (antibody, IgG2, V domains shown)
VL: DIVLTQSPASLAVSLGQRATISCRASQSVSTSSYSYMHWYQQKPGQPPKVLISYASNLESGVPARFSGSGSGTDFTLNIHPVEEGDTATYFCQHSWGIPRTFGAGTKLELRRAV
VH: EVQLQQSGPELVKPGASVKISCKTSGYTFTEYIIHWVKQGHGRSLEWIGSINPDYDITNYNQRFKGKATLTLDKSSRTAYLELRSLTSEDSAVYYCASWISDFFDYWGQGTTLMVSAAS

— patent US20130084295A1
